In article PMC8779868, “Uncovering Novel Plasma Membrane Carboxylate Transporters in the Yeast Cyberlindnera jadinii” (Journal of Fungi, 2022):

Assays:
CjSlc16 = molecular target: T1, CjSlc16 (Williopsis jadinii, UniProt A0A1E4RTM6); conditions: pH 6.0, 30 °C; labelled compound
T1 construct: gene CYBJADRAFT_170140

CjSlc13-1 = molecular target: T2, CjSlc13-1 (Williopsis jadinii, UniProt A0A1E4RYH4); conditions: pH 6.0, 30 °C; labelled compound
T2 construct: gene CYBJADRAFT_194887

CjSlc13-2 = molecular target: T3, CjSlc13-2 (Williopsis jadinii, UniProt A0A1E4S914); conditions: pH 6.0, 30 °C; labelled compound
T3 construct: gene CYBJADRAFT_165372

[1] = substrate: CC(=O)O; test: cells, lysate or membranes; conditions: pH 6.0, 30 °C, labelled compound, pH 6.0
[2] = substrate: O=C(O)CC(O)(CC(=O)O)C(=O)O; test: cells, lysate or membranes; conditions: pH 5.5, 30 °C, labelled compound, pH 5.5
[3] = substrate: C[C@H](O)C(=O)O; test: cells, lysate or membranes; conditions: pH 5.0, 30 °C, labelled compound, pH 5.0

T2 sequence (A0A1E4RYH4 1-843): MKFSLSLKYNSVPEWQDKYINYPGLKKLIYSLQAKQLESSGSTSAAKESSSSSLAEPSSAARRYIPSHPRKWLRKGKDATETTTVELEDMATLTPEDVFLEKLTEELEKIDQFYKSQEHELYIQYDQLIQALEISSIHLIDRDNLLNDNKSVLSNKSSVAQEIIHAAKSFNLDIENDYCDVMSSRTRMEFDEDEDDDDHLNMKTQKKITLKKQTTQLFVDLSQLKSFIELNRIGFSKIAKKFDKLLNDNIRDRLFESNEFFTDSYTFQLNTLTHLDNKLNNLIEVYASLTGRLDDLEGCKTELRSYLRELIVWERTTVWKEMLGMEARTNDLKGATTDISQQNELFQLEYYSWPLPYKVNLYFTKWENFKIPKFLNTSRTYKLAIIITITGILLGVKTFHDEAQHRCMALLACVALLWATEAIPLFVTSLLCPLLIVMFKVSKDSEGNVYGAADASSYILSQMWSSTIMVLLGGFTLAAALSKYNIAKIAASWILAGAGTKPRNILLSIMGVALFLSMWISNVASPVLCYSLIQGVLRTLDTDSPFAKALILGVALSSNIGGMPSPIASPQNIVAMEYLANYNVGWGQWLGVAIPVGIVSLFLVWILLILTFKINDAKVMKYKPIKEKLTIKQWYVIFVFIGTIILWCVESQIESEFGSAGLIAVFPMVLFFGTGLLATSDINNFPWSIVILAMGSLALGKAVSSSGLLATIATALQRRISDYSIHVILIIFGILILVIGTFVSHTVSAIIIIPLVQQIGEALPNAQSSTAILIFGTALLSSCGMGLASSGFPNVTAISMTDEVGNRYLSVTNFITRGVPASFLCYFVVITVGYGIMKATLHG
T1 sequence (A0A1E4RTM6 1-470): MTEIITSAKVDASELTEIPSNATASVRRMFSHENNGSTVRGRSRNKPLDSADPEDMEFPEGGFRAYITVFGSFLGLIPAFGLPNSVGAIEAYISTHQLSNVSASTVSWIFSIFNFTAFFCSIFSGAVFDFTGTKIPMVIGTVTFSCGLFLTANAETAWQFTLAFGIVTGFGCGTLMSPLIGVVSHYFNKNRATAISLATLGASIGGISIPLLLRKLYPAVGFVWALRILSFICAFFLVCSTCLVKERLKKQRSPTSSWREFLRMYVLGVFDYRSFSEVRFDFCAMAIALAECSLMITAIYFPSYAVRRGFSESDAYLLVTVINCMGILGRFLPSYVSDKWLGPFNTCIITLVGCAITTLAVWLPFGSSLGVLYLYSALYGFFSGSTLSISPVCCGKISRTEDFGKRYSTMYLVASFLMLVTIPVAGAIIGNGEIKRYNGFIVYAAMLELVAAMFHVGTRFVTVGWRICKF
T3 sequence (A0A1E4S914 1-821): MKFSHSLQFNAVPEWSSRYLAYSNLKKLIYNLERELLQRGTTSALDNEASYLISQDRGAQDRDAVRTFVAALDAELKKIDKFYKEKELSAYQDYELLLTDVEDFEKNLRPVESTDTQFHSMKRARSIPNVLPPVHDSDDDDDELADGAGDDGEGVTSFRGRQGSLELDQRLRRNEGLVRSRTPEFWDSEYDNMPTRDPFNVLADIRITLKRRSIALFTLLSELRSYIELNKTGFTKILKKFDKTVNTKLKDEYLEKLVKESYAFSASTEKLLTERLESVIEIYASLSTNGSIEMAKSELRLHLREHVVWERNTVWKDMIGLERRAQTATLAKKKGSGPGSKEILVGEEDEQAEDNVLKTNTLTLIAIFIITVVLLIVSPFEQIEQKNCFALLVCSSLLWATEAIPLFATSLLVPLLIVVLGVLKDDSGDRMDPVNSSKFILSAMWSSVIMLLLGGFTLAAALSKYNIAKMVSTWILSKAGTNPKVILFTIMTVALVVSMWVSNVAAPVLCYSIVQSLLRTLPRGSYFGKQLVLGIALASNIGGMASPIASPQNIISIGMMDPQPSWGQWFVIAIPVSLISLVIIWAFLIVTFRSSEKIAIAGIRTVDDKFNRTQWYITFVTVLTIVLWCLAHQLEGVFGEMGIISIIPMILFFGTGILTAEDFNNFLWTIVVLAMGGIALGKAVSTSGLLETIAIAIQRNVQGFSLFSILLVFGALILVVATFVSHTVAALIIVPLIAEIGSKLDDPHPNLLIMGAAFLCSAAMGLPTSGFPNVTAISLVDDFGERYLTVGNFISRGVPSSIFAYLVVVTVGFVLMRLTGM

## CC(=O)O [acetic acid]
CjSlc16
  uptake: All transformants presented activity for acetate uptake (Figure 3C)
CjSlc13-1
  uptake: All transformants presented activity for acetate uptake (Figure 3C)
CjSlc13-2
  uptake: All transformants presented activity for acetate uptake (Figure 3C)

B1: CjJen5 (Williopsis jadinii) (protein)
chain: MDWDAFDFFVMSLNVSKLATDLDRSVKDISWGITVVLMFRSVGAIVFGYFGDRYGRKWPLIVNLFCLVVIQIGTGFINTYAEFIGVRALFGVFMGSMYGLASATAMEGLPTSARSFLSGVYQQGYALGYLLGVIFQRAITDTTTHTWRSLFWFSAGPPKLKPFLQQQLHMKNKNTSFSEDACKVFKEQWLKMIYLVLLMAGMNFMSHGSQDLYPTMLTVQLNYSPNRSTVTNSVANLGALAGGMTFGHFSGFLGRRSGIIICSILGACMIYPWAFVRNSGINAGVFFLQFFVQGAWGVIPIHLSELSPPEFRAFVVGVSYQLGNLASSASSTIESTLGERYPLYDDNGDVIEGVYDYARVMAIFVGAVFCYVILIAFIGPENRHSNINYVLSKEEEEELIQQRMIVTNNGSEQDSNADDEEKLVTAHTEKIEPK
[1]
  Km: 5.18 ± 1.51 mM

B2: CjJen2 (Williopsis jadinii) (protein)
chain: MTSPLPVSPTQDSGLEEPKEDKNIGLTRTLQENEEDSNSSNDEDVPDYSWSSIKRYSRTRFTTLGELHLDSLSDLNPLPALKEMTPRNWNFFFMGFIAWFSASFAFFLTAVSGTVIAESLEVSTKDITWGLSSVLMVRSAGAVIFGLWTDNYSRKWPFIATAAMFCVLQIGTGFCNTYTQFLAGGTYATAAATSLEDAPLKARSTLSGLFFTAYPFGMVFAAIFWRAFQETDHTWKALFWFSAGIPFVLIIWRLLYPETIYFTELLKVKKLIKEEASTSPKISKWAKTKTMFSKYWLLFTYLVLLLASSNFLTHASQDMYPTMLRSQFGWSNDAQTVAIVVTNLGGVIGSLVTGIVMEVLGRRLSILLCCVIGGSFIYPALMLHTTSATLGCGFFMMFGVLGVWGVIPAHLSELSPPDARVLVSGLAYQLGNLASSASSTIETDLAQRWPLEWDAEGNVIRLDYAKTIAVFTGAVFIYTVVIALVGPEKYHRDLNSPLLKKYFAKLRENDVEKGSSSE
[1]
  Km: 1.26 ± 0.35 mM

B3: CjAto5 (Williopsis jadinii) (protein)
chain: MSTSSLPEDLEKGYATQSLHEMNTAVTNDPSQPVVMRVVTSSNGDIIHLGNQAFSKKDLFNAFAGDLQPGLHATPHRPMGNPVPMGLTSFCICCFVVSLVNAQARGVTNAKVIASCALFFAGVVETISGLWCLVIENTFAATALGSFGGFWMGYAGLLIDAFGITSSYSTTEELGNALGFYLTAWTIFAFLMWLCTFKSTWPFFILFLLVWVFLMCLAIGKYNDNTTATKAGGVLGLVATFVGFFIVYAGVADSSNSYLTIPASPMPHAPRV
[2]
  Km: 22.21 ± 7.14 mM

B4: CjSlc5 (Williopsis jadinii) (protein)
chain: MFAETEDGPDYRGVTTFGAAVLIAKGQLGLGVLGIPSTFDVLGFVPGLISLVGLSILVTWTGVVIGQFRLAHPKVYCIDDATEIMFGKAARELVGWGYWLFYTMCYGAALITVSIALNTFSDHGLCTMAFIGIATGATTILTLFTRTMKVLSWLGFIAISCIFFAIWVVAIACLTQSTPAAAESLVDPAKKVIQVVATHSSYKKIAAAVSVQLLSLAGGASFFTIHAEMKDQTKYTKSLLMGQGFIVFNYIAIACIMYAKVGQYIASPALGSAGRTFQIISYGIAFPGLMFSCFFLAHLAAKYALVRILRGTEHLQKNSKTHWITWTAMVAIVIAVGFVIAGAIPFFGDLLGLIGALLGSIFALIAPGFMCLYDMNYKFEGKVPRGYTWIYKNNGSWTKNFWTKLETLLSFFCIASGIYILFTGVYGSIASIADLYSSGAVSGAFSCADNS
[2]
  Km: 17.24 ± 4.73 mM

B5: CjJen4 (Williopsis jadinii) (protein)
chain: MTAGRYIATRIPSLFTLPGTPVKSLNPAPAMRALSRSDWNYFAMGYCAWVIDAFDFFCVSACAPALAKAFDRSIHDITWGITLVLMTRSLGAVIFGSLSDTYGRKPTYLAVMALFSIIEIGTGFVQNYTQFLIVRLLFGICMGGCYTTASATALESQPTTSRSVLGGIFLPGYNLGYILAVAFYRAFEFSTHGWRALFWFSAAPPAILFMWRLMFPEHPHFVEHKRVQREKALAEGNHAQAASPWRQFYSDLKKALSNHWLMFVYLVFYLSLMNFSSHASQDLMPTMLQNQLFFSANQRTAIMIVVNLGAMVGGLCVGTLSEFTGRRLAIFSCAVGSSALIYPAFFSTSIGGLMAGGFFMQFFVMGCWGVCSVYIMELSPPAFRALFGGLAYQLGNLASSASSTIESEISSSFPLPDLGPSVYDYAKSMALFMVGVNVCLIVCIVCGPEYFHRDFSAHAEENYSDQKKATIEQFDTASDEERAMGSLKMNTEVEEFDMDKASVQHRESARD
[1]
  Km: 1.62 ± 0.43 mM

B6: CjAto2 (Williopsis jadinii) (protein)
chain: MSSINEDLEKISSLGELNYDSHPISQVRTAGPNDEFVMLGRMKVRKSELWSAFGGDLQPGVHAQPQRKFANPVPIGLCGFALTTLVLSMANARAMGIRTPNVAVAPAFFYGGFAQILAGMWEIALENTFGSVVLTSYGCFWLSWAAIEIDWFGIKAAYDDPIELENAIGFFLLGWVIFTFLILLCTMKSTVAFFSMFFLLEITFILLTVASFTRHVGCQRAGGVFGVITGFLAWYNAYAGIATKEISYFVPKPWPLPGASHL
[3]
  Km: 4.33 ± 0.70 mM

B7: CjJen6 (Williopsis jadinii) (protein)
chain: MGFKTYSMSECAQYTRERFTTLLPSREQWEVEKSHMNPFPGLRAMTWRNWQFYIIGMLAWTWDALDFFAMSLNMSNISEDLNRSVKDVSWGITLVLMFRSVGAIFFGYFGDRYGRKWPLIVNLICLIVIQIGTGFVKTYSEFLGVRALFGIFMGSMYGLASATALEGLPTDARSFLSGVFQQGYALGYLLAVIFQRAITDTTEKGWRSLFWFSAGPPVLFILWRAFLPETEEFLQQKLHMSNRKSTFRRDAWNTFKQQWVKMGYLVLLMAGMNFMSHGSQDLYPTMLTKQLGFSSDRSTVTNSVANLGAMAGGMVIGHFSGFIGRRAAIMVCCICGGAMIYPWAFVTGNGINAGVFFLQFFVQGAWGVIPIHLSELSPPEFRAFVVGVSYQLGNLVSSASSTIETTIGERFPLYTETGERREGVYDYAKVMAIFVGAVFAYVFLISFIGPENRHANINFVLSDEEQREMVSQGKIITHKGSDDENLDEEKAVAFHTENVVSEVK
[2]
  Km: 21.44 ± 7.17 mM

B8: CjJen1 (Williopsis jadinii) (protein)
chain: MHKLEESVTRQDSIHEDPDDVVIEDEQEIILNWPNIVEYSKTRFTSLTHLHLHAVGDLNPLPSLREMSWNNWNFFFMGFVAWFSASFDFFLTAVSGTYIAQSLDVSTADITWGLSAVLMVRSAGAVIFGLWTDNYSRKWPFITTAAMFCALQIGTGFCKTYQQFMAVRAISGIAMGGTYATAAATSMDDAPLKARSFLSGLFFSAYAFGMIFAAIFWRAFESTKHSWKALFWFSSCFPFILICWRLVFPETRYFTRVLKARELIKQDQIEAGVYVKPTLKTKWGSVKAMLKKDWLLFTYLVILLAGTNYLTHASQDMYPTMLRSQLEWSLDAQTVAIVVVNLGAICGGLIAGTFMEVTGRRLAILICCVIGGCFVYPAYMMHNNSAVLGGGFFLFFAVIGVWGVLPIHLSELSPPDARALVSGLAYQLGNLASSASSTIETRLAKLWPLEWDAEGNPIKYDYAKTIACFTGAVFIYVFITTFIGPEKFHRDLSSPLLKTYIEKVIEIEEGRDPEAKFVTSSGDTSEQASYGKATHEEIELDCYPQEKK
[1]
  Km: 2.15 ± 0.60 mM

B9: CjAto4 (Williopsis jadinii) (protein)
chain: MSDKENQTLNNPQTQDYASTGGKPDVEHGEIPVSKVYTTGDQDEYLMIGHQKVLRSELWTAFGGDLQPGVHAPPPQRLANPAPLGLCGFALTTFVLSMANARAMGVTIPNAAVGAACFYGGLVQLLAGMWEISLDNTFGGTALSSYGGFWMSWAAIQIDWFGIKKAYDDPIMLANAVGFFLLGWTIFTFMLVLCTVKSTVAFFSLFFFLDITFLLLTIGEFTRKTGVSRAGGVFGVITSFIAWYNAFAGLATKENSYVVAIPLPLPGAKRS
[1]
  Km: 1.28 ± 0.38 mM

B10: CjAto3 (Williopsis jadinii) (protein)
chain: MAANVDLEKQATPNSSNDNHTFSPEDEAHPVSKVYTSGENDQYIMIGRTKVLRSELWNAFGGDLQPGIHATPPRRFANPAPLGLCAFALTTFVLSMVNARAMGITTPNIVVGLALFYGGFVQLLAGMWEIALDNTFGGTALSSYGGFWMSYAAIQIDWFGIKSAYTDPIELANAVSFFLLGWTIFTFMILLCTVKSTVSFFSLFFFLEITFLLLTIGDFTRRVGVTRAGGVFGVITAFIAWYNAFAGIATKENSYITIKAWPLPGAKRA
[1]
  Km: 9.17 ± 4.70 mM

B11: CjJen3 (Williopsis jadinii) (protein)
chain: MAMSDVKRYILSRVPTLFCIPGTSFQALNPVPALSALSRNDWNYFLMGYAAWTIDAFDFFCVSACAPALAQALDRSVTDITWGITLVLMTREYFAHIDGQLTDIFEIGSLGAVIFGSLSDTYGRKPTYLAVMCLFCIIEVGTGFVQNYTQFLVVRAMFGICMGGCYTTASATALESQPVGSRSVLGGIFLPGYNLGYILAVAFYRAFEFTEHGWRALFWFSAAPPAILFVWRMFFPEHPHFTALKRVQREKALSEGKHHQASSPWAQFFADLKSAMRHHWLMFVYLVIYMSLMNFSSHASQDLMPTMLQNQLGFEANDRTIIMVVINIGAIFGGLCVGTISEYTGRRLAVFVCTICSSALIYPAFYTTDMAGLICGGFFMQFFVMGCWGVTSVYIMELSPNAFRALFGGLAYQLGNLASSASSTIEAEISEAFPLSDIGPEVYDYARSMALFMVGVNVCLVICIVSGPEKFHKDFSIQGEGQEQLQRKSCNDVDEELAIEYTEDLKHTDRVSWTEKHSIHHNEKT
[1]
  Km: 3.21 ± 1.07 mM

B12: CjAto1 (Williopsis jadinii) (protein)
chain: MSDKESQMLNTSQSQERAIDAGCDDLQEDVEHQQVPVSKVFTSGERDEYVMIGRTKVLRSELWNAFGGDLQPGIHAPPPRRFANPAPLGLCGFALTTFVLSMSNARAMGITVANVAVGPAFFYGGIIQLLSGMWEISLDNTFGGTVLSSYGGFWLSWAAIQIDWFGIQRAYDDPIMLNNGLGFFLLGWVIFTLMVLICTVKSTVAFFSLFFFLEMTFLLLTIGEFTRSVGVTRAAGVFGVITSFLGWYNALAGFATRENSYFVATAVPLPGAKRAQVHS
[1]
  Km: 12.18 ± 4.67 mM
